Reference: publication PMC2950884 (Nature structural & molecular biology, 2010)
Numbering of substitutions follows the chain as printed. In names and notes the source's numbering stands.

B1: Rtt103 CTD-interacting domain (residues 1-131) (domain or fragment)
chain: MPFSSEQFTTKLNTLEDSQESISSASKWLLLQYRDAPKVAEMWKEYMLRPSVNTRRKLLGLYLMNHVVQQAKGQKIIQFQDSFGKVAAEVLGRINQEFPRDLKKKLSRVVNILKERNIFSKQVVNDIERSL
B2: Rtt103(E115R)-CID (domain or fragment)
chain: B1 chain with E115R
B3: Rtt103-CID (R108N) (domain or fragment)
chain: B1 chain with R108N
B4: Pcf11 CTD-interacting domain (domain or fragment, S. cerevisiae, UniProt P39081 4-139, looked up)
chain: DTEVIVKDFNSILEELTFNSRPIITTLTKLAEENISCAQYFVDAIESRIEKCMPKQKLYAFYALDSICKNVGSPYTIYFSRNLFNLYKRTYLLVDNTTRTKLINMFKLWLNPNDTGLPLFEGSALEKIEQFLIKAS
B5: Pcf11-CID (N107R): Pcf11 with arginine in place of Asn107; CID in vitro, TAP tagged protein in ChIP (protein)
chain: B4 chain with N104R
B6: Pcf11(D117A)-CID (domain or fragment)
chain: B4 chain with D114A
B7: Pcf11(D117K)-CID (domain or fragment)
chain: B4 chain with D114K

Experiments:
[1] = target: Rtt103 CTD-interacting domain (residues 1-131) (S. cerevisiae) (UniProt Q05543); assay: NMR titration
[2] = target: Pcf11 CTD-interacting domain (S. cerevisiae) (UniProt P39081); assay: NMR titration
[3] = target: Pcf11-CID (N107R) (S. cerevisiae) (UniProt P39081); assay: NMR titration
[4] = target: four heptad repeat Ser2P CTD peptide; assay: fluorescence polarisation
[5] = target: Ser2abP-CTD diheptad repeat peptide (phosphorylated at both Ser2 positions); assay: fluorescence polarisation
[6] = target: Ser5abP-CTD diheptad repeat peptide; assay: fluorescence polarisation
[7] = target: Ser2abP/Ser5abP-CTD diheptad repeat peptide; assay: fluorescence polarisation
[8] = target: four heptad repeat Ser2P CTD peptide; assay: NMR relaxation
PMA1 gene = assay: ChIP of TAP tagged proteins, 3′-end recruitment; assay type: cell-based, yeast
ADH1 gene = assay: ChIP of TAP tagged proteins, 3′-end recruitment; assay type: cell-based, yeast
AUC = target: the molecule itself; assay: AUC
[9] = untagged wild-type Pcf11 present

Molecule	Kd [1]	Kd [2]	Kd1 (first binding event) [4]	Kd2 (second binding event) [4]	also measured
Ser2abP/Ser5abP-CTD diheptad repeat peptide	41 µM	630 µM	–	–	–
Ser2aP-CTD diheptad repeat peptide	420 µM	1400 µM	–	–	–
Ser2bP-CTD diheptad repeat peptide	76 µM	240 µM	–	–	–
Ser2abP-CTD diheptad repeat peptide (phosphorylated at both Ser2 positions)	15 µM	160 µM	–	–	Kd [3]: 24 µM
Ser5abP-CTD diheptad repeat peptide	–	1200 µM	–	–	–
B1	–	–	3 µM	20 µM	Kd [5]: 2.1 µM; Kd [6]: 122 µM; Kd [7]: 53 µM; stoichiometry N (proteins per peptide) [8]: 2
B2	–	–	1.8 µM	> 1000 µM	stoichiometry N (protein per peptide) [8]: 1
B3	–	–	–	–	Reduction of 3′-end recruitment compared with wild type (factor) (PMA1 gene): 8; Kd [5]: 100 µM; Reduction of 3′-end recruitment compared with wild type (factor) (ADH1 gene): 5
B4	–	–	50 µM	140 µM	Kd [5]: 130 µM; Kd [7]: 370 µM; stoichiometry N (AUC): 2
B5	–	–	–	–	Increase of 3′-end recruitment compared with wild type Pcf11-TAP (factor) (PMA1 gene; [9]): > 2; Increase of 3′-end recruitment compared with wild type Pcf11-TAP (factor) (ADH1 gene; [9]): > 2
B6	–	–	40 µM	430 µM	–
B7	–	–	30 µM	130 µM	–
